Data on 36 sequences can be found in the supplement of paper PMC10567573.

A short description of this series: protein stability index of a GFP-peptide fusion (GPS, HEK-293T) (PSI 1-6); higher = more stable. To be noted: c terminus: a fixed tail appended.

± gives the standard deviation.
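Further: 24-mer peptide tiles fused after GFP, lentivirally expressed, FACS-sorted into six equal bins by GFP/DsRed ratio, decoded by Illumina sequencing, PSI is the read-weighted mean bin number.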

For PPLPPPDDPATLGPHLGLRGVPQS [DYRK1B], the protein stability index by setting is: (treatment: DMSO) 4.9 ± 0.23; (treatment: MLN4924 1 uM, 8 h) 4.91 ± 0.14.
On to PPPPPSPSSLGPLLPLQREPLYNW [BTBD1], for which the protein stability index amounted to 3.78 ± 0.15 (treatment: DMSO) and 3.73 ± 0.25 (treatment: MLN4924 1 uM, 8 h).
Sequence PPQSPQGASSLPTTMNYPLWSQSY [MAGEA3] came in with a protein stability index (treatment: DMSO) of 3.45 ± 0.21 and a protein stability index (treatment: MLN4924 1 uM, 8 h) of 3.47 ± 0.22.
On the same counts, the results for PPRQALGSLCSPWAAPRVGPLPPA [YPEL3] are 3.16 ± 0.51 and 3.2 ± 0.44.
With PQAPDPEEEENRDSQQPGKRRKDS [FANCE], the protein stability index was 5.74 ± 0.21 (treatment: DMSO) and 5.62 ± 0.3 (treatment: MLN4924 1 uM, 8 h).
For PQQYMAFLPHHIMVKIFRLLPTKS [FBXO34] the same measures were 2.23 ± 0.38 and 2.07 ± 0.39.
PRGRLDLATQSLTVETCRALGKLL [LRRC45]: the protein stability index runs as follows: (treatment: DMSO) 2.38 ± 0.28; (treatment: MLN4924 1 uM, 8 h) 2.31 ± 0.31.
On the same counts, the results for PRNSCITCPQCHRSLILDDRGLRG [TRIM9] are 2.58 ± 0.27 and 3 ± 0.45.
As for PRPDMAPELTPEEEQATKQFLEEI [PTPN9], the protein stability index runs as follows: (treatment: DMSO) 5.12 ± 0.48; (treatment: MLN4924 1 uM, 8 h) 5.08 ± 0.62.
For PRVPEEAAQDRPMSPGDCPPETTE [YJU2B], the protein stability index by setting is: (treatment: DMSO) 5.46 ± 0.26; (treatment: MLN4924 1 uM, 8 h) 5.4 ± 0.37.
Consider PRYREDPCKQCKKKYVKGDVSLCR [FBXO34], for which the protein stability index by setting is: (treatment: DMSO) 2.99 ± 0.45; (treatment: MLN4924 1 uM, 8 h) 3.35 ± 0.24.
Turning to PSEDIWKKFELVPSPPTSPPWGLG [MYCL], the protein stability index reads like this: (treatment: DMSO) 3.04 ± 0.36; (treatment: MLN4924 1 uM, 8 h) 2.9 ± 0.37.
For PSGTPTNLRRHVPDLESGSESGAD [DLC1] the same measures were 5.47 ± 0.33 and 5.46 ± 0.1.
Regarding PSLDSRQRLDYEREIQPTAILSLD [SPRY1], the protein stability index is 4.39 ± 0.16 (treatment: DMSO) and 4.53 ± 0.22 (treatment: MLN4924 1 uM, 8 h).
As to PTAATTQNPVLSKLLMADQDSPLD [LCOR], the protein stability index reads like this: (treatment: DMSO) 4.9 ± 0.17; (treatment: MLN4924 1 uM, 8 h) 4.87 ± 0.19.
In turn, PVKKQLQGASWELQSLRPHDEDIK [ZNF396] returned a protein stability index (treatment: DMSO) of 4.62 ± 0.21 and a protein stability index (treatment: MLN4924 1 uM, 8 h) of 4.72 ± 0.38.
Turning to PVPGKTLHLPIMGVVMKVRIPTCH [DENND6A], the protein stability index stood at 2.43 ± 0.72 (treatment: DMSO) and 2.45 ± 0.38 (treatment: MLN4924 1 uM, 8 h).
PVQELPPSLRAPPPGGWPLQPRVQ [ZMAT5]: the protein stability index (treatment: DMSO) was found to be 4.02 ± 0.39 and the protein stability index (treatment: MLN4924 1 uM, 8 h) amounted to 4.18 ± 0.25.
As for PVTNNLLEKCKTLVSQSNDLSSLR [SPACA9], the protein stability index by setting is: (treatment: DMSO) 3.04 ± 0.2; (treatment: MLN4924 1 uM, 8 h) 3.14 ± 0.24.
For PVTPLGLQNEVPPQPDPVFLEALS [SERTAD3] the same measures were 4.55 ± 0.33 and 4.46 ± 0.27.
As to PVVWWLNLLSIALYLLSGSIIAVA [POMT2], the protein stability index (treatment: DMSO) is 3.27 ± 0.14 and the protein stability index (treatment: MLN4924 1 uM, 8 h) came to 3.43 ± 0.18.
On the same counts, the results for PWVYILLRKAVLKNLYKLASQCCG [PTGFR] are 2.09 ± 0.26 and 2.22 ± 0.45.
Regarding PYAMKPIDYYTETKILQERAVLGA [NSDHL], the protein stability index by setting is: (treatment: DMSO) 2.85 ± 0.14; (treatment: MLN4924 1 uM, 8 h) 3.06 ± 0.18.
For PYVSDGNFSNYYVAHPPVTYSQPY [TENT5C] the same measures were 2.55 ± 0.39 and 2.62 ± 0.38.
For QDDLENPMLETASKLLLSGTADGA [ANKRD17] the same measures were 5.14 ± 0.33 and 5.2 ± 0.36.
Turning to QDEEMLELPAPAEVAAKNQSLEGD [MLH1], the protein stability index is, setting by setting: (treatment: DMSO) 5.37 ± 0.59; (treatment: MLN4924 1 uM, 8 h) 5.66 ± 0.17.
Regarding QDLKYISPEIMASVLNGKFANLIK [CDC25A], the protein stability index stood at 2.21 ± 0.22 (treatment: DMSO) and 2.24 ± 0.17 (treatment: MLN4924 1 uM, 8 h).
For QELELVLMISENNFLFRNAASTLT [ANKRD40] the same measures were 2.91 ± 0.82 and 3.28 ± 0.74.
For QEQRLGIRISMSHEEEPLGTAGPL [GMPPB], the protein stability index stood at 4.82 ± 0.21 (treatment: DMSO) and 4.79 ± 0.34 (treatment: MLN4924 1 uM, 8 h).
In the case of QFLGFSWIFVNLTVRFCILGKESF [HACD3], the protein stability index is, setting by setting: (treatment: DMSO) 3.49 ± 0.52; (treatment: MLN4924 1 uM, 8 h) 3.25 ± 0.16.
For QFVSSVPRCDLVDLGEGKICFCCE [FAM189A2], the protein stability index is 2.67 ± 0.37 (treatment: DMSO) and 2.98 ± 0.6 (treatment: MLN4924 1 uM, 8 h).
The sequence QHLPAQEQWDRLLVLYPTSLAIFS [PLEKHN1] displayed a protein stability index (treatment: DMSO) of 2.55 ± 0.53 and a protein stability index (treatment: MLN4924 1 uM, 8 h) of 2.6 ± 0.59.
Take QHPDMSVTKVVVHKETEITPEDGE [EPB41L3]: the protein stability index by setting is: (treatment: DMSO) 5.33 ± 0.23; (treatment: MLN4924 1 uM, 8 h) 5.39 ± 0.21.
QHQNKSPPKVKAEDGMQCLQLKET [DLC1] displayed a protein stability index (treatment: DMSO) of 5.17 ± 0.47 and a protein stability index (treatment: MLN4924 1 uM, 8 h) of 5.2 ± 0.11.
Regarding QIITVTVQTGLDQYQQVPVEIVKS [IQUB], the protein stability index by setting is: (treatment: DMSO) 2.32 ± 0.17; (treatment: MLN4924 1 uM, 8 h) 2.07 ± 0.38.
In turn, QKENVFKCDSLKEECIPEHMVRES [FAN1] came in with a protein stability index (treatment: DMSO) of 4.56 ± 0.38 and a protein stability index (treatment: MLN4924 1 uM, 8 h) of 4.56 ± 0.19.
